The results in this text go back to the RNAGym collection of RNA variant scans (doi:10.1073/pnas.2313332121).

B1: TPR t1 (parent)
chain: GACCAAUCUGCCCUCAGAGCUCGAGAACAUCUUCGGAUGCAGAGGAGGCAGGCUUCGGUGGCGCGAUAGCGCCAACGUCCUCAACCUCCAAUGCAUCCCACCACAUGAUGAUGCCUGAAGAGCCUUGGUUUUUUG

The variants in this series derive from B1. Description: polymerase ribozyme fitness, log enrichment relative to wild type (log ratio); higher = more active; in vitro selection for triplet polymerase activity. The method, boiled down: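 Each subunit of a heterodimeric triplet polymerase ribozyme was represented by a PCR-built, transcribed mutant library that underwent triplicate single-round in vitro selection with frozen incubation at −7 °C. Extended constructs were recovered by gel excision, streptavidin-bead capture and RT-PCR, and Illumina sequencing of input and output libraries kept genotypes with ≥10 input reads and ≥1 read per output. Fitness is the logarithm of genotype enrichment relative to wild-type enrichment, from inverse-variance-weighted replicate averages, with a logarithm base of 2.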
For U9A C11U G52A, the “polymerase ribozyme fitness (log ratio)” value is -0.401.

With A2C C3A U9A C20U G63C G120U, the “polymerase ribozyme fitness (log ratio)” value is -1.07.

On to C40G C94A G110C C114U A118G, for which the “polymerase ribozyme fitness (log ratio)” value is -6.35.

As for U92C, the “polymerase ribozyme fitness (log ratio)” value is -0.847.

As to U92G, the “polymerase ribozyme fitness (log ratio)” value is -2.38.

As for A5G C13U G36C C62U C85A U112A G117U, the “polymerase ribozyme fitness (log ratio)” value is -1.72.

For the variant A83G G120U C124A G135A, the “polymerase ribozyme fitness (log ratio)” value turned out to be 0.857.

With A16C G52A C70U C73U, the “polymerase ribozyme fitness (log ratio)” value was -3.8.

On to A6C G61C U92C, for which the “polymerase ribozyme fitness (log ratio)” value was -4.76.

Regarding A43G C76U U109G, the “polymerase ribozyme fitness (log ratio)” value is -6.79.

As for G110A G135U, the “polymerase ribozyme fitness (log ratio)” value was -1.92.

As for U78C A83U, the “polymerase ribozyme fitness (log ratio)” value was -0.61.

Turning to A41G G61U G120C, the “polymerase ribozyme fitness (log ratio)” value was found to be 0.573.

In the case of A29U C99G A119G G120C, the “polymerase ribozyme fitness (log ratio)” value was -6.66.

Regarding U7G C13A A37C G52A G69C, the “polymerase ribozyme fitness (log ratio)” value was -1.85.

As to G71C C89U U126C, the “polymerase ribozyme fitness (log ratio)” value is -2.71.

With C73A U78C, the “polymerase ribozyme fitness (log ratio)” value was -0.268.

On to G45C U96A G113C, for which the “polymerase ribozyme fitness (log ratio)” value is -3.21.

G60C U109G: the “polymerase ribozyme fitness (log ratio)” value is -5.41.

As for A16G A27C C72U C123U, the “polymerase ribozyme fitness (log ratio)” value was -3.64.

With C15G G63C A84C, the “polymerase ribozyme fitness (log ratio)” value was -4.12.

Take U21G C62G C101U: the “polymerase ribozyme fitness (log ratio)” value was -5.

In the case of C40U G48U C82A C88A, the “polymerase ribozyme fitness (log ratio)” value is -3.31.

In the case of C72A C102U, the “polymerase ribozyme fitness (log ratio)” value was -1.48.

As to C12A C86A, the “polymerase ribozyme fitness (log ratio)” value is -0.926.

As for U21A A43C, the “polymerase ribozyme fitness (log ratio)” value is -2.9.

For G35A G48U, the “polymerase ribozyme fitness (log ratio)” value was -3.78.

As for C13G G17A U55G, the “polymerase ribozyme fitness (log ratio)” value was -5.5.

Regarding C53G G69C, the “polymerase ribozyme fitness (log ratio)” value is -0.98.

Regarding U7A C72A, the “polymerase ribozyme fitness (log ratio)” value is -0.427.

G17C G61U G93U C114A G127U: the “polymerase ribozyme fitness (log ratio)” value was -6.

As for A27U C49U, the “polymerase ribozyme fitness (log ratio)” value is -3.64.

Take C11A A27G: the “polymerase ribozyme fitness (log ratio)” value is -6.66.

Regarding C13U G113A, the “polymerase ribozyme fitness (log ratio)” value turned out to be 0.0113.

With A18U C28U G51A U59G G117C, the “polymerase ribozyme fitness (log ratio)” value is -6.92.

As for C15U C20A U81G U112G, the “polymerase ribozyme fitness (log ratio)” value is -6.15.

Take A41U C80U: the “polymerase ribozyme fitness (log ratio)” value is -1.77.

Consider G19U U96A C114A, for which the “polymerase ribozyme fitness (log ratio)” value was determined as 0.905.

With C3A A111C G128U U129A, the “polymerase ribozyme fitness (log ratio)” value is -1.89.

As to C12U U106A, the “polymerase ribozyme fitness (log ratio)” value was 0.462.

Take C64U A84C C94G: the “polymerase ribozyme fitness (log ratio)” value is -1.23.

Consider G51U C114U, for which the “polymerase ribozyme fitness (log ratio)” value is -5.14.

In the case of C53A C56U G58A U133G, the “polymerase ribozyme fitness (log ratio)” value was -0.438.

C56U G93A G110C: the “polymerase ribozyme fitness (log ratio)” value is -5.11.

In the case of C20A G42U G120A, the “polymerase ribozyme fitness (log ratio)” value is -3.01.

As for C8G A29U U55G C56A C94U C124A, the “polymerase ribozyme fitness (log ratio)” value was -1.05.

As for A18G C64U G69C U78G G113C, the “polymerase ribozyme fitness (log ratio)” value is -3.05.

As for C53A U130A, the “polymerase ribozyme fitness (log ratio)” value worked out at 0.226.

In the case of G44A C56U, the “polymerase ribozyme fitness (log ratio)” value is -0.878.

As for A43U A46U C97U, the “polymerase ribozyme fitness (log ratio)” value is -3.34.

For C15U C124U, the “polymerase ribozyme fitness (log ratio)” value worked out at 0.776.

As for A37U A46U G47A U130G U131G, the “polymerase ribozyme fitness (log ratio)” value was -3.56.

With C72A G110U, the “polymerase ribozyme fitness (log ratio)” value is -1.54.

Regarding C12U A46G C62A U67C U112A U129G, the “polymerase ribozyme fitness (log ratio)” value is -4.48.

Take A5G G10A C72A A91U: the “polymerase ribozyme fitness (log ratio)” value was -1.75.

Turning to C15A A84U, the “polymerase ribozyme fitness (log ratio)” value is -1.41.

Regarding U32C A41C, the “polymerase ribozyme fitness (log ratio)” value was -1.24.

Turning to C20U G58A C73A G93C G117U, the “polymerase ribozyme fitness (log ratio)” value was -5.31.

On to C28A A43U C86G, for which the “polymerase ribozyme fitness (log ratio)” value was -5.44.

On to G52A C53U C114U, for which the “polymerase ribozyme fitness (log ratio)” value was -2.38.

As for G48A G69U C123U, the “polymerase ribozyme fitness (log ratio)” value came out at 0.885.

Turning to C13A G39U U59G G69C, the “polymerase ribozyme fitness (log ratio)” value is -3.36.

C8A A41U C49U: the “polymerase ribozyme fitness (log ratio)” value was -1.56.

As to C4A U21G G44U C82A C124G, the “polymerase ribozyme fitness (log ratio)” value is -3.89.

Regarding C49U C72U C94G, the “polymerase ribozyme fitness (log ratio)” value is -1.72.

Take A16G G113A: the “polymerase ribozyme fitness (log ratio)” value was -2.04.

Regarding G10C G42C G77A C85A C86G C114A, the “polymerase ribozyme fitness (log ratio)” value is -5.24.

For A5G C49U C73U, the “polymerase ribozyme fitness (log ratio)” value is -0.864.

In the case of U7A C40U G48U C53G C85A A119U, the “polymerase ribozyme fitness (log ratio)” value was -0.816.

Take C53A C124U U129G: the “polymerase ribozyme fitness (log ratio)” value is -0.384.

In the case of A41U C72G U78A A83U, the “polymerase ribozyme fitness (log ratio)” value was -2.44.

In the case of C15U G39A, the “polymerase ribozyme fitness (log ratio)” value was -3.08.

Consider A46U U112A, for which the “polymerase ribozyme fitness (log ratio)” value came to 0.36.

Regarding G42A G48A G69A, the “polymerase ribozyme fitness (log ratio)” value is -6.28.

Turning to U9G A29U G39C, the “polymerase ribozyme fitness (log ratio)” value is -3.86.

On to A41G U55A U130G, for which the “polymerase ribozyme fitness (log ratio)” value is -0.934.

With C11U G71U C123A, the “polymerase ribozyme fitness (log ratio)” value came to 1.29.

C4U C11G C49U G51A C80U C94G: the “polymerase ribozyme fitness (log ratio)” value was -2.25.

In the case of G17A U38A U59G C115U G117U, the “polymerase ribozyme fitness (log ratio)” value is -3.04.

Regarding U33C C124A, the “polymerase ribozyme fitness (log ratio)” value is -2.98.

For the variant C20U C56A, the “polymerase ribozyme fitness (log ratio)” value was -1.52.

With U14C C40A U87C, the “polymerase ribozyme fitness (log ratio)” value is -3.01.

For C8G G107U G113A, the “polymerase ribozyme fitness (log ratio)” value is -3.41.
